Data from the supplement of paper PMC9170038.

How the values were obtained:
[1] = system: MS2 coat protein; test: apparent KD of MS2 coat protein, switch ON state; designed switch direction (-1 OFF switch, 1 ON switch): -1; higher = weaker reporter binding; conditions: FMN input: 0 or 200 uM; Eterna round: R93 (includes R88 designs)
Procedure, shortened: (§1)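 For every design, apparent KD is the median of normalised binding-curve fits from its clusters. The RNA switches were transcribed on-chip from Illumina sequencing clusters and titrated with SNAP-549-labelled MS2 coat protein (twofold steps, 0.7 or 1.5 nM to 3 µM; 0.8–1.5 h to 10–20 min per step). Titrations used 100 mM Tris-HCl pH 7.5, 80 mM KCl, 4 mM MgCl2, without or with constant ligand.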

[2] = system: MS2 coat protein; test: apparent KD of MS2 coat protein, switch OFF state (with FMN for OFF switches, without FMN for ON switches); designed switch direction (-1 OFF switch, 1 ON switch): -1; higher = weaker reporter binding; conditions: FMN input: 0 or 200 uM; Eterna round: R93 (includes R88 designs)
Procedure, shortened: as §1

Row | Sequence | apparent KD of MS2 coat protein [1] [nM] | apparent KD of MS2 coat protein [2] [nM]
1 | AACAGUACAGGAUAUACAUGAGGAUCACCCAUGUGAAAAUUAAGUGGCGUACCACAAUGUAGAAGGGUACUGGA [Moding Maslow Revisited (73) 24] | 110 | 83.7
2 | AGGAAACAUGAGGAUCACCCAUGUCAGGAUAUAGAAAAGAAAAGAAAAGAAAGAAGAACUAGAAGGGACAAGAA [Scorpion I] | 27.7 | 26.3
3 | AAAAAUGGAGGAUAUACAUGAGGAUCACCCAUGUGUAACUAUACUAAGCACAAACCACGUAGAAGGCCAAAAAA [Gilly Gone Silly 11 - Jieux - Exclusion 3] | 51.7 | 78.3
4 | CUCAUGUCAGGAUAUCAGUAGUAAAAAAAAAAAAUUACUACUGAGAAGGGACAUGAGGAUCACCCAUGUCCCUU [EX4 301: Super Stable 1] | 20.4 | 16.7
5 | AACUGACAUGAGGAUCACCCAUGUCAGGAUAUGACUUGAAAAAUAAAAUAAAAACAUGUCAGAAGGGACAUGGG [Design 54 :P Sub-opt H] | 20.2 | 18.9
6 | AAGAGUACAGGAUAUACAUGAAAAGAGUCGAAAGACUCAAAACAUGAGGAUCACCCAUGUAGAAGGGUACUCAA [Hyphema Seclusion Mod 62% 2] | 137 | 98.9
7 | AGUCCAGAAGGAUAUACAUAGGUGAUAAAAAAAAAAAAACUACAUGAGGAUCACCCAUGUAGAAGGUCUGGACA [Brourd - Exclusion 2 - Sub 3] | 37.8 | 24.5
8 | UAAAACAGAGGAUAUACAUGAGGAUCACCCAUGUAAAAAUGUAGAAGGCUGAAAUAAAUAAGAAGGAAAUAAAA [Meechl Ex3 R2 m1] | 24.8 | 25.6
9 | AGCUAGUCAGGAUAUACGAGAAUGUCAAAAGACGUGAAGGGACAUGAGGAUCACCCAUGUAGAAGGGACUAGCA [Diamond 23] | 39.3 | 208
10 | AAAAAUGGAGGAUAUACAUGAGGAUCACCCAUGUUAGAACAAAAAAAAGGGAAAGAAAGUAGAAGGCCAUAAAA [Ex 3 May 25] | 34.7 | 49.1
11 | AAAAAUGGAGGAUAUACAUGAGGAUCACCCAUGUGUAAAAAAAAUUACACAAAAGAAAGUAGAAGGCCAUAAAA [Ex 3 Warm] | 59.7 | 102
12 | AAAAAUGGAGGAUAUACAUGAGGAUCACCCAUGUGUGACUAUACUAUGUGCUCUUCAGGUAGAAGGCCAAAAAA [Gilly Gone Silly 19 - Jieux - Exclusion 3] | 44.3 | 249
13 | AAAAGGGCAGGAUAUGCGUACUCACGGAAAAACUGGAUGGUACAUGAGGAUCACCCAUGUAGAAGGGCUAAAAA [Dora Explored 17 - Jieux - Exclusion 2] | 57.5 | 40.9
14 | AAGGGACAUGAGGAUCACCCAUGUGAGGAUAUGAUGCGAAUAAAGAAAGAAGAAAGCAUCAGAAGGCACACCAA [58%, Disencluded 3, 7] | 67.8 | 146
15 | AGUAUGCGAGGAUAUACAUGAGGAUCACCCAUGUGAGAGAUAAGUGUGAGAAAGACAUGUAGAAGGCGCGUACA [JL Lego Mod 28] | 146 | 35.1
16 | AAGAAAGCAGGAUAUACAUGAGGAUCACCCAUGUAAAAGAAAGAAAGGGAAAAGAAAAGUAGAAGGGCUAAGAA [Usermaatre-setepenre Pami] | 23.6 | 26.1
17 | AAAAAACAUGAGGAUCACCCAUGUGAGGAUAUACAAAGAAAGACAGGCAAGUAAAGAGGUAGAAGGCGCAAAAA [Default title] | 15.4 | 18.2
18 | AUAGGCCUAGGAUAUACAUGAGGAUCACCCAUGUAAACAGAUAGAUCAAGGUAAACGAGUAGAAGGAGGAAUAA [JR_Exc003_Sub209] | 22 | 17.8
19 | AAAAAACAUGAGGAUCACCCAUGUGAGGAUAUCCUAAAGGGAAUAAAAUAACUCAAAAGGAGAAGGCGCAAAAA [Ex 1 May 31] | 60.2 | 46.3
20 | AAAAGGUCAGGAUAUGCCCACCAGGAAAAAAAACCAGGUGGGCAGAAGGGACAUGAGGAUCACCCAUGUAAAAA [Excls4-I] | 59.6 | 107
21 | AUAAUGUGAGGAUAUACAUGAGGAUCACCCAUGUAAUUAAAAAGGAGAGAAACAAUACGUAGAAGGUACAUUUA [JR_Exc003_Sub510] | 26.7 | 29
22 | AACAAACAUGAGGAUCACCCAUGUCAGGAUAUGCAAACAACAAACAACAAACAACAAAGCAGAAGGGACAACAA [e1-3] | 19.9 | 25.1
